B1: GEBT403 mature Fab (Fab, V domains shown)
VH: EVQLVQSGAEVKKPGSSVKVSCKASGYTFTDYYMHWVRQAPGQGLEWMGEINPKTGGTNYAQKFQGRVTMTRDTSTSTAYMELSSLRSEDTAIYSCARGGQRLIPLRRFYFYYWGQGVLVTVSS
VL: QSVLTQPPSVSGAPGQKVTISCTGSSSNIGGYDVHWYQQLPGMAPKLLIYDNNERPSGISDRFSGSKSGTSASLAITGLQTEDEADYYCQSYDSSMNAWVFGGGTRLTVL
B2: GEBT403 igL-reverted Fab (Fab, V domains shown)
VH: QVQLVQSGAEVKKPGSSVKVSCKASGYTFTDYYMHWVRQAPGQGLEWMGEINPKTGGTNYAQKFQGRVTMTRDTSTSTAYMELSSLRSEDTAVYYCARGGQRLIPLRRFYFYYWGQGVLVTVSS
VL: QSVLTQPPSVSGAPGQKVTISCTGSSSNIGGYDVHWYQQLPGMAPKLLIYDNNERPSGISDRFSGSKSATSASLAITGLQTEDEADYYCQSYDSSMNAWVFGGGTRLTVL
B3: GEBT412, mature IgG (antibody, V domains shown)
VH: QVQLVESGGGLVQPGGSLRLACAASGFIFSNHGMHWVRQAPGKGLEWVAVIWYDGSEKYYADSVKDRFTISRDNSKNMLYLQMNNLKLVDTAVYYCARRGCTGSGCYLYYYGLDSWGQGVVVTVSS
VL: DIQMTQSPSSLSASVGDTVTITCRASQGISSHLNWFQQKPGKAPKLLIYAATTLQSGVPSRFSGSGSGTDFTLTISSLQPEDFATYYCLQHNFYPYSFGQGTKVEIK
B4: GEBT391, inferred germline (igL) reverted IgG (antibody, V domains shown)
VH: EVQLVESGGGLVQPGGSLRLSCAASGFTFSSYGMHWVRQAPGKGLEWVAVIWYDGSKKYYADSVKDRFTISRDNSKNMLYLQMNNLKLEDTAVYYCARRGCTGSGCYLYYYALDSWGQGVVVTVSS
VL: DIQMTQSPSSLSASVGDTVTITCRASQGISSYLNWFQQKPGKAPKLLIYAASSLESGVPSRFSGSGSGTEFTLTISSLQPEDFATYYCLQHNFYPYSFGQGTKVEIK
B5: GEBT391, mature IgG (antibody, V domains shown)
VH: QVQLVESGGGLVQPGGSLRLSCAASGFTFSSYGMHWVRQAPGKGLEWVAVIWFDGSEKYYVDSVKDRFTISRDNSKNMLYLQMNNLKLDDTAVYYCARRGCTGSGCYLYYYALDSWGQGVVVTVSS
VL: DIQMTQSPSSLSASVGDTVTITCRASQGISSYLNWFQQKPGKAPKLLIYAATTLQSGVPSRFSGSGSGTDFTLTISSLQPEDFATYYCLQHNFYPYSFGQGTKVEIK
B6: GEBT412, inferred germline (igL) reverted IgG (antibody, V domains shown)
VH: QVQLVESGGGLVQPGGSLRLSCAASGFTFSSYGMHWVRQAPGKGLEWVAVIWYDGSKKYYADSVKDRFTISRDNSKNMLYLQMNNLKLEDTAVYYCARRGCTGSGCYLYYYGLDSWGQGVVVTVSS
VL: DIQMTQSPSSLSASVGDTVTITCRASQGISSYLNWFQQKPGKAPKLLIYAASSLESGVPSRFSGSGSGTEFTLTISSLQPEDFATYYCLQHNFYPYSFGQGTKVEIK
B7: GEBT414, mature IgG (antibody, V domains shown)
VH: EVQLVQSGAEVKRPGESLRISCKTSGYSFTGSWISWVRQMPGKGLDWMGNIYPGDSDTRYNPSFQGHVTISADKSISTTYLQWSSLKASDTATYYCAKGGGITIFGLLHYPLDSWGQGVVVTVSS
VL: DIQMTQSPSSLSASVGDTVTITCRASQGINNWLAWYQQKPGKAPKLLIYKASSLQSGVPSRFSGSGSGTDFTLTISSLQSEDFATYYCQQYNSGPLTFGGGTKVEIK
B8: GEBT414, inferred germline (igL) reverted IgG (antibody, V domains shown)
VH: EVQLVQSGAEVKRPGESLRISCKTSGYSFTGSWISWVRQMPGKGLEWMGSIYPGDSDTRYNPSFQGHVTISADKSISTTYLQWSSLKASDTATYYCAKGGGITIFGLLHYPLDSWGQGVVVTVSS
VL: DIQMTQSPASLSASVGDRVTITCQASQGISSWLAWYQQKPGKAPKLLLYKAPGLQSGVPSMFSGSGSGTEFTLTISSLQPEDFATYYCQQYNSGPLTFGGGTKVEIK
B9: GEBT404, mature IgG (antibody, V domains shown)
VH: EVQLVESGGGLAKPGGSLRLSCAASGFTFSNYWMYWVRQAPGKGLEWISAINSAGSRTYYPDSVKGRFTISRENAKNTLYLQMDSLRAEDTAVYYCAKGRIAIFGLVITYFDYWGQGVLVTVSS
VL: DIQMTQSPSSLSASVGDRVTITCRASQGITNDLAWYQQKPGETPKLLIYDASSLQSGIPSRFSGSGSGTDFTLTISSLQPEDFATYYCQHYYSTPPTFGGGTKVEIK
B10: GEBT404, inferred germline (igL) reverted IgG (antibody, V domains shown)
VH: EVQLVESGGGLAKPGGSLRLSCAASGFTFSNYWMHWVRQAPGKGLEWISAINSAGSSTYYADSVKGRFTISRENAKNTLYLQMDGLRAEDTAVYYCAKGRIAIFGLVITYFDYWGQGVLVTVSS
VL: DIQMTQSPSSLSASVGDRVTITCQASQGITNDLAWYQQKPGETPKLLIYEASSLQSGIPSRFSGSGSGTDFTLTISSLQSEDFATYYCQHYYSTPPTFGGGTKVEIK
B11: GEBT403, inferred germline (igL) reverted IgG (antibody, V domains shown)
VH: QVQLVQSGAEVKKPGSSVKVSCKASGYTFTDYYMHWVRQAPGQGLEWMGEINPKTGGTNYAQKFQGRVTMTRDTSTSTAYMELSSLRSEDTAVYYCARGGQRLIPLRRFYFYYWGQGVLVTVSS
VL: QSVLTQPPSVSGAPGQKVTISCTGSSSNIGGYDVHWYQQLPGMAPKLLIYDNNERPSGISDRFSGSKSATSASLAITGLQTEDEADYYCQSYDSSMNAWVFGGGTRLTVL
B12: GEBT403, mature IgG (antibody, V domains shown)
VH: EVQLVQSGAEVKKPGSSVKVSCKASGYTFTDYYMHWVRQAPGQGLEWMGEINPKTGGTNYAQKFQGRVTMTRDTSTSTAYMELSSLRSEDTAIYSCARGGQRLIPLRRFYFYYWGQGVLVTVSS
VL: QSVLTQPPSVSGAPGQKVTISCTGSSSNIGGYDVHWYQQLPGMAPKLLIYDNNERPSGISDRFSGSKSGTSASLAITGLQTEDEADYYCQSYDSSMNAWVFGGGTRLTVL

molecular target: T1, YU2 gp140-foldon trimer (HIV-1 isolate YU2 (clade B) | ); experiment: SPR

Q: How did the Kd turn out when B1 was run?
A: Its Kd is 7 nM.

molecular target: T1, YU2 gp140-foldon trimer; experiment: BLI

Q: With B1 as the binder, how does the Kd read?
A: The Kd was 5 nM.

Q: For B2, which Kd is on record?
A: Its Kd is 2 nM.

molecular target: YU2 gp120, soluble monomer (HIV-1 isolate YU2 (clade B), UniProt P35961 32-498); experiment: BLI

Q: Which Kd does the source give for B3 here?
A: Its Kd is 11 nM.

Q: Which Kd does the source give for B4 here?
A: The Kd was 118 nM.

Q: For B5, which Kd is on record?
A: The Kd was 6 nM.

Q: Which Kd does the source give for B6 here?
A: Its Kd is 104 nM.

Q: Which Kd does the source give for B7 here?
A: Its Kd is 24 nM.

Q: With B8 as the binder, how does the Kd read?
A: Its Kd is 63 nM.

Q: B9 was tested. Which Kd did it give?
A: Its Kd is 43 nM.

Q: How did the Kd turn out when B10 was run?
A: The Kd was 56 nM.

Q: With B11 as the binder, how does the Kd read?
A: The Kd was 11 nM.

Q: With B12 as the binder, how does the Kd read?
A: Its Kd is 13 nM.

From publication PMC4754655 (2016)
